Columns and labels:
[1] = tested on: C[C@H](C=O)[C@H]1CC[C@H]2[C@@H]3CCC4=CC(=O)CC[C@]4(C)[C@H]3CC[C@]12C; assay: purified protein; settings: 1 mM NAD+, 100 mM HEPES pH 7.5, 25 °C
[2] = tested on: O=Cc1ccccc1; assay: purified protein; settings: 1 mM NAD+, 100 mM HEPES pH 7.5, 25 °C
[3] = tested on: T1, C[C@H](C=O)[C@H]1CC[C@H]2[C@@H]3CCC4=CC(=O)CC[C@]4(C)[C@H]3CC[C@]12C; assay: purified protein; format: biochemical, Pseudomonas putida; settings: 1 mM NAD+, 100 mM HEPES pH 7.5, 25 °C
T1 construct: full-length, His tag (pET28a, NdeI/HindIII), E. coli BL21 LOBSTR

[4] = tested on: T2, O=Cc1ccccc1; assay: purified protein; format: biochemical, Pseudomonas putida; settings: 1 mM NAD+, 100 mM HEPES pH 7.5, 25 °C
T2 construct: full-length, His tag (pET28a, NdeI/HindIII), E. coli BL21 LOBSTR

[5] = target: steroid aldehyde dehydrogenase (Sad) from Caldimonas tepidiphilia (Caldimonas tepidiphilia); assay: crystal structure; X-ray, 1.8 Å; sitting-drop vapor diffusion at 4 °C, 20 mg/mL Sad_(Ctepid), 40% MPD, 3% PEG 8000, 0.1 M sodium cacodylate pH 6.5, 10% glycerol; interface analysed with PISA

Row | Substance | Km [1] [µM] | kcat [1] [s⁻¹] | kcat/Km [1] [M⁻¹ s⁻¹] | Km [2] [µM] | also measured
1 | PpBADH (Pseudomonas putida; F400A) | 4.35 ± 0.167 | 0.00284 ± 3.34e-05 | 653 ± 75.1 | 59.5 ± 2.59 | 
2 | PpBADH (Pseudomonas putida; F400A/L125T) |  |  |  |  | Km [3]: 1.73 ± 0.0801 µM; kcat [3]: 0.0431 ± 0.000719 s⁻¹; kcat/Km [3]: 24900 ± 1230 M⁻¹ s⁻¹; Km [4]: 40.97 ± 2.58 µM; kcat [4]: 0.037 ± 0.000756 s⁻¹; kcat/Km [4]: 903 ± 59.8 M⁻¹ s⁻¹
3 | PpBADH (Pseudomonas putida; L125T) | 18.94 ± 1.07 | 0.0291 ± 0.000667 | 1540 ± 36.8 | 3.18 ± 0.216 | 
4 | PpBADH (Pseudomonas putida; Y121A) |  |  |  | 700.4 ± 31.9 | 
5 | SadCtest (Comamonas testosteroni) | 1.93 ± 0.118 | 3.57 ± 0.0818 |  |  | 
6 | steroid aldehyde dehydrogenase (Sad) from Caldimonas tepidiphilia (enzyme) |  |  |  |  | stoichiometry N [5]: 2
